According to US20200079833A1 (AstraZeneca / MedImmune, published 2020):
Starred links: 1 amine or outer side, 2 acyl side, 3 side chain; linkers in the order of their positions; H or OH if unused. Non-standard residues stand in square brackets, D forms with d. Groups on a side chain read outwards from the residue. No end group written: not given here. *: point of attachment. γGlu = O=C(O)[C@H](CCC(=O)[*:2])N[*:1]; Palmitoyl = CCCCCCCCCCCCCCCC(=O)*; αMeF = C[C@](N)(Cc1ccccc1)C(=O)O; αMeK = C[C@](N)(CCCCN)C(=O)O; αMeS = C[C@](N)(CO)C(=O)O; Aib = CC(C)(N)C(=O)O

T1: GLP-1R (INS1e assay) (UniProt P32301 22-463, limits assumed)
T1 sequence (looked up): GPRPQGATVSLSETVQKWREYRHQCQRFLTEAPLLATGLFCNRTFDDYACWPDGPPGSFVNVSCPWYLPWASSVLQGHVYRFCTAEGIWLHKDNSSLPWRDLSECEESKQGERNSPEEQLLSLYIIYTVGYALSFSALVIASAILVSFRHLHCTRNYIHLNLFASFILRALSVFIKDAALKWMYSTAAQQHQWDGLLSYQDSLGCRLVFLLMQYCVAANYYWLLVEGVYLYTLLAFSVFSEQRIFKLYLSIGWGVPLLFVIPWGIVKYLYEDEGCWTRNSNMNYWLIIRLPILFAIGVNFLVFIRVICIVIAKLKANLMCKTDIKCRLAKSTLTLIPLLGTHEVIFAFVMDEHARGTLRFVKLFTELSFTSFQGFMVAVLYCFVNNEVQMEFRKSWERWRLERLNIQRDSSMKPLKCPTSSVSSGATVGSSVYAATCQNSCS


Each binder was assayed against T1, GLP-1R (INS1e assay) (assay: cell-based or functional assay).

Binder	INS1e assay EC50 GLP-1 R n1	INS1e assay EC50 GLP-1 R n2	INS1e assay EC50 Mean pM GLP-1R
H[Aib]EGS[αMeF]TSDV[αMeS]S[αMeF]LEK([γGlu-Palmitoyl])EAA[αMeK]E[αMeF]IA[αMeF]VV[αMeK]GG-NH2 (N-terminus assumed; SMILES CCCCCCCCCCCCCCCC(=O)N[C@@H](CCC(=O)NCCCC[C@H](NC(=O)[C@H](CCC(=O)O)NC(=O)[C@H](CC(C)C)NC(=O)[C@](C)(Cc1ccccc1)NC(=O)[C@H](CO)NC(=O)[C@](C)(CO)NC(=O)[C@@H](NC(=O)[C@H](CC(=O)O)NC(=O)[C@H](CO)NC(=O)[C@@H](NC(=O)[C@](C)(Cc1ccccc1)NC(=O)[C@H](CO)NC(=O)CNC(=O)[C@H](CCC(=O)O)NC(=O)C(C)(C)NC(=O)[C@@H](N)Cc1c[nH]cn1)[C@@H](C)O)C(C)C)C(=O)N[C@@H](CCC(=O)O)C(=O)N[C@@H](C)C(=O)N[C@@H](C)C(=O)N[C@@](C)(CCCCN)C(=O)N[C@@H](CCC(=O)O)C(=O)N[C@@](C)(Cc1ccccc1)C(=O)N[C@H](C(=O)N[C@@H](C)C(=O)N[C@@](C)(Cc1ccccc1)C(=O)N[C@H](C(=O)N[C@H](C(=O)N[C@@](C)(CCCCN)C(=O)NCC(=O)NCC(N)=O)C(C)C)C(C)C)[C@@H](C)CC)C(=O)O) [SEQ ID NO 84]	455 pM	665 pM	560 pM
H[Aib]EGS[αMeF]TSDV[αMeS]S[αMeF]LEGEAAK([γGlu-Palmitoyl])E[αMeF]IA[αMeF]VV[αMeK]GG-NH2 (N-terminus assumed; SMILES CCCCCCCCCCCCCCCC(=O)N[C@@H](CCC(=O)NCCCC[C@H](NC(=O)[C@H](C)NC(=O)[C@H](C)NC(=O)[C@H](CCC(=O)O)NC(=O)CNC(=O)[C@H](CCC(=O)O)NC(=O)[C@H](CC(C)C)NC(=O)[C@](C)(Cc1ccccc1)NC(=O)[C@H](CO)NC(=O)[C@](C)(CO)NC(=O)[C@@H](NC(=O)[C@H](CC(=O)O)NC(=O)[C@H](CO)NC(=O)[C@@H](NC(=O)[C@](C)(Cc1ccccc1)NC(=O)[C@H](CO)NC(=O)CNC(=O)[C@H](CCC(=O)O)NC(=O)C(C)(C)NC(=O)[C@@H](N)Cc1c[nH]cn1)[C@@H](C)O)C(C)C)C(=O)N[C@@H](CCC(=O)O)C(=O)N[C@@](C)(Cc1ccccc1)C(=O)N[C@H](C(=O)N[C@@H](C)C(=O)N[C@@](C)(Cc1ccccc1)C(=O)N[C@H](C(=O)N[C@H](C(=O)N[C@@](C)(CCCCN)C(=O)NCC(=O)NCC(N)=O)C(C)C)C(C)C)[C@@H](C)CC)C(=O)O) [SEQ ID NO 80]	3890 pM	1330 pM	2610 pM
H[Aib]EGS[αMeF]TSDV[αMeS]S[αMeF]K([γGlu-Palmitoyl])EGEAA[αMeK]E[αMeF]IA[αMeF]VV[αMeK]GG-NH2 (N-terminus assumed; SMILES CCCCCCCCCCCCCCCC(=O)N[C@@H](CCC(=O)NCCCC[C@H](NC(=O)[C@](C)(Cc1ccccc1)NC(=O)[C@H](CO)NC(=O)[C@](C)(CO)NC(=O)[C@@H](NC(=O)[C@H](CC(=O)O)NC(=O)[C@H](CO)NC(=O)[C@@H](NC(=O)[C@](C)(Cc1ccccc1)NC(=O)[C@H](CO)NC(=O)CNC(=O)[C@H](CCC(=O)O)NC(=O)C(C)(C)NC(=O)[C@@H](N)Cc1c[nH]cn1)[C@@H](C)O)C(C)C)C(=O)N[C@@H](CCC(=O)O)C(=O)NCC(=O)N[C@@H](CCC(=O)O)C(=O)N[C@@H](C)C(=O)N[C@@H](C)C(=O)N[C@@](C)(CCCCN)C(=O)N[C@@H](CCC(=O)O)C(=O)N[C@@](C)(Cc1ccccc1)C(=O)N[C@H](C(=O)N[C@@H](C)C(=O)N[C@@](C)(Cc1ccccc1)C(=O)N[C@H](C(=O)N[C@H](C(=O)N[C@@](C)(CCCCN)C(=O)NCC(=O)NCC(N)=O)C(C)C)C(C)C)[C@@H](C)CC)C(=O)O) [SEQ ID NO 86]	45.3 pM	84.5 pM	65 pM
H[Aib]EGS[αMeF]TSDV[αMeS]S[αMeF]LEGEK([γGlu-Palmitoyl])A[αMeK]E[αMeF]IA[αMeF]VV[αMeK]GG-NH2 (N-terminus assumed; SMILES CCCCCCCCCCCCCCCC(=O)N[C@@H](CCC(=O)NCCCC[C@H](NC(=O)[C@H](CCC(=O)O)NC(=O)CNC(=O)[C@H](CCC(=O)O)NC(=O)[C@H](CC(C)C)NC(=O)[C@](C)(Cc1ccccc1)NC(=O)[C@H](CO)NC(=O)[C@](C)(CO)NC(=O)[C@@H](NC(=O)[C@H](CC(=O)O)NC(=O)[C@H](CO)NC(=O)[C@@H](NC(=O)[C@](C)(Cc1ccccc1)NC(=O)[C@H](CO)NC(=O)CNC(=O)[C@H](CCC(=O)O)NC(=O)C(C)(C)NC(=O)[C@@H](N)Cc1c[nH]cn1)[C@@H](C)O)C(C)C)C(=O)N[C@@H](C)C(=O)N[C@@](C)(CCCCN)C(=O)N[C@@H](CCC(=O)O)C(=O)N[C@@](C)(Cc1ccccc1)C(=O)N[C@H](C(=O)N[C@@H](C)C(=O)N[C@@](C)(Cc1ccccc1)C(=O)N[C@H](C(=O)N[C@H](C(=O)N[C@@](C)(CCCCN)C(=O)NCC(=O)NCC(N)=O)C(C)C)C(C)C)[C@@H](C)CC)C(=O)O) [SEQ ID NO 82]	151 pM	238 pM	195 pM
H[Aib]EGS[αMeF]TSDV[αMeS]S[αMeF]LEGK([γGlu-Palmitoyl])AA[αMeK]E[αMeF]IA[αMeF]VV[αMeK]GG-NH2 (N-terminus assumed; SMILES CCCCCCCCCCCCCCCC(=O)N[C@@H](CCC(=O)NCCCC[C@H](NC(=O)CNC(=O)[C@H](CCC(=O)O)NC(=O)[C@H](CC(C)C)NC(=O)[C@](C)(Cc1ccccc1)NC(=O)[C@H](CO)NC(=O)[C@](C)(CO)NC(=O)[C@@H](NC(=O)[C@H](CC(=O)O)NC(=O)[C@H](CO)NC(=O)[C@@H](NC(=O)[C@](C)(Cc1ccccc1)NC(=O)[C@H](CO)NC(=O)CNC(=O)[C@H](CCC(=O)O)NC(=O)C(C)(C)NC(=O)[C@@H](N)Cc1c[nH]cn1)[C@@H](C)O)C(C)C)C(=O)N[C@@H](C)C(=O)N[C@@H](C)C(=O)N[C@@](C)(CCCCN)C(=O)N[C@@H](CCC(=O)O)C(=O)N[C@@](C)(Cc1ccccc1)C(=O)N[C@H](C(=O)N[C@@H](C)C(=O)N[C@@](C)(Cc1ccccc1)C(=O)N[C@H](C(=O)N[C@H](C(=O)N[C@@](C)(CCCCN)C(=O)NCC(=O)NCC(N)=O)C(C)C)C(C)C)[C@@H](C)CC)C(=O)O) [SEQ ID NO 83]	137 pM	250 pM	194 pM

Further lines, results first:

INS1e assay EC50 GLP-1 R n1	INS1e assay EC50 GLP-1 R n2	INS1e assay EC50 Mean pM GLP-1R	Binder
289 pM	527 pM	408 pM	H[Aib]EGS[αMeF]TSDV[αMeS]S[αMeF]LEGEAA[αMeK]K([γGlu-Palmitoyl])[αMeF]IA[αMeF]VV[αMeK]GG-NH2 (N-terminus assumed; SMILES CCCCCCCCCCCCCCCC(=O)N[C@@H](CCC(=O)NCCCC[C@H](NC(=O)[C@](C)(CCCCN)NC(=O)[C@H](C)NC(=O)[C@H](C)NC(=O)[C@H](CCC(=O)O)NC(=O)CNC(=O)[C@H](CCC(=O)O)NC(=O)[C@H](CC(C)C)NC(=O)[C@](C)(Cc1ccccc1)NC(=O)[C@H](CO)NC(=O)[C@](C)(CO)NC(=O)[C@@H](NC(=O)[C@H](CC(=O)O)NC(=O)[C@H](CO)NC(=O)[C@@H](NC(=O)[C@](C)(Cc1ccccc1)NC(=O)[C@H](CO)NC(=O)CNC(=O)[C@H](CCC(=O)O)NC(=O)C(C)(C)NC(=O)[C@@H](N)Cc1c[nH]cn1)[C@@H](C)O)C(C)C)C(=O)N[C@@](C)(Cc1ccccc1)C(=O)N[C@H](C(=O)N[C@@H](C)C(=O)N[C@@](C)(Cc1ccccc1)C(=O)N[C@H](C(=O)N[C@H](C(=O)N[C@@](C)(CCCCN)C(=O)NCC(=O)NCC(N)=O)C(C)C)C(C)C)[C@@H](C)CC)C(=O)O) [SEQ ID NO 79]
345 pM	346 pM	346 pM	H[Aib]EGS[αMeF]TSDV[αMeS]S[αMeF]LEGEAA[αMeK]EK([γGlu-Palmitoyl])IA[αMeF]VV[αMeK]GG-NH2 (N-terminus assumed; SMILES CCCCCCCCCCCCCCCC(=O)N[C@@H](CCC(=O)NCCCC[C@H](NC(=O)[C@H](CCC(=O)O)NC(=O)[C@](C)(CCCCN)NC(=O)[C@H](C)NC(=O)[C@H](C)NC(=O)[C@H](CCC(=O)O)NC(=O)CNC(=O)[C@H](CCC(=O)O)NC(=O)[C@H](CC(C)C)NC(=O)[C@](C)(Cc1ccccc1)NC(=O)[C@H](CO)NC(=O)[C@](C)(CO)NC(=O)[C@@H](NC(=O)[C@H](CC(=O)O)NC(=O)[C@H](CO)NC(=O)[C@@H](NC(=O)[C@](C)(Cc1ccccc1)NC(=O)[C@H](CO)NC(=O)CNC(=O)[C@H](CCC(=O)O)NC(=O)C(C)(C)NC(=O)[C@@H](N)Cc1c[nH]cn1)[C@@H](C)O)C(C)C)C(=O)N[C@H](C(=O)N[C@@H](C)C(=O)N[C@@](C)(Cc1ccccc1)C(=O)N[C@H](C(=O)N[C@H](C(=O)N[C@@](C)(CCCCN)C(=O)NCC(=O)NCC(N)=O)C(C)C)C(C)C)[C@@H](C)CC)C(=O)O) [SEQ ID NO 78]
